From patent US20060147378A1, “Azulene dimer-quenched, near-infrared fluorescent probes” (priority 2002, published 2006)
Where no end group is shown, it is not given here. Alexa‑680 maleimide = near-infrared fluorochrome (Ex 679 nm, Em 702 nm) reacted with the cysteine; NIRQ750 = not defined here

What was measured:
[1] = test system: T1, NIRQ750-GDEVDGSGC-Alexa-680 caspase-3 substrate probe
T1 sequence: GDEVDGSGC

caspase-3 = target: T2, caspase-3 (Homo sapiens, UniProt P42574); experiment: Activation of NIRF probes by caspase-3 with or without inhibitor; type: biochemical
T2 sequence (P42574 29-175 limits assumed): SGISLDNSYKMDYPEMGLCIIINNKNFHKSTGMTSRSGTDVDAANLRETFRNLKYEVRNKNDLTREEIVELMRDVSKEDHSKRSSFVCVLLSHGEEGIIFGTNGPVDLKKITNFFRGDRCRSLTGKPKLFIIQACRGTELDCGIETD
T2 sequence (P42574 176-277 limits assumed): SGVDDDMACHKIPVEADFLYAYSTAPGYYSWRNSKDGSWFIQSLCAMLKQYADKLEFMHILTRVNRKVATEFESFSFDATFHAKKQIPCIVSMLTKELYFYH
Description: The HPLC purified NIRF probes were tested against caspase-3 with or without an inhibitor of the enzyme in pH7.2 buffer (20 mM PIPES, 100 mM NaCl, 10 mM DTT, 1 mM EDTA, 0.1% CHAPS, 10% sucrose). Within 180 minutes, the fluorescence signal of NIRQ750-probe (probe 6, FIG. 7A) had increased about 4-fold while no activation was observed when the caspase-3 specific inhibitor was present (FIG. 7B). […] As expected, the fluorescence signal of both negative controls, (probe 7, FIG. 7A) with enzyme and probe 6 without enzyme, were remained unchanged.

activation (fluorescence signal) with caspase-3 specific inhibitor present (caspase-3; caspase-3 plus caspase-3 specific inhibitor, pH7.2 buffer)	fluorescence signal without enzyme (caspase-3; negative control, no enzyme, pH7.2 buffer)	increase of fluorescence signal (caspase-3; with caspase-3, within 180 minutes, pH7.2 buffer (PIPES, NaCl, DTT, EDTA, CHAPS, sucrose))	Substance	fluorescence signal increase (probe activation by enzymatic cleavage) within 180 minutes [1]
–	–	–	caspase-3	had increased about 4-fold
no activation	unchanged	about 4 fold	probe 6: NIRQ750 anchored to N-terminus of caspase-3 cleavable peptide GDEVDGSGC, Alexa-680 maleimide on the cysteine residue (NIRQ750-GDEVDGSGC(Alexa‑680 maleimide); not fully specified (C-terminus); reading uncertain)	–
